One substance from publication PMC2217592 can be followed below.

Experiment [1] deals with TIRC7 (human (endogenous in PBL)) (UniProt Q13488).
For experiment [2] the target is unchanged. The source holds these as a separate data set.

Sequence of UniProt Q13488 (Q13488 217-830): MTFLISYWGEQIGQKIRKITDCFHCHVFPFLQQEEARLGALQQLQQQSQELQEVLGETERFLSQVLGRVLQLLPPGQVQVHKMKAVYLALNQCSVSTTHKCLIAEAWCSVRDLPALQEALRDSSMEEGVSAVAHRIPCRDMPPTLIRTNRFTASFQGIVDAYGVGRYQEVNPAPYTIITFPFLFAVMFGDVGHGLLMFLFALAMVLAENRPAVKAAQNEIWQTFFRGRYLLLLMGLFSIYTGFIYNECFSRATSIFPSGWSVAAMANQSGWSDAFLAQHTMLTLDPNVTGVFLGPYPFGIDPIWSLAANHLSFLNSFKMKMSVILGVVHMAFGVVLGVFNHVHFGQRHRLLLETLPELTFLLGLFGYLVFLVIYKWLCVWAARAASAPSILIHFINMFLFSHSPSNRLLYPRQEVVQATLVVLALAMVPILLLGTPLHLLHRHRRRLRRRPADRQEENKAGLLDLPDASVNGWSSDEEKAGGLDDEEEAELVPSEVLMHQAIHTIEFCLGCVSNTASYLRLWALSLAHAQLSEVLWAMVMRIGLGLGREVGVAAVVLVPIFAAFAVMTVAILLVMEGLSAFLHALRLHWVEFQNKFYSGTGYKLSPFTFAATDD

In experiment [1], “soluble HLA-DR alpha 2 fusion protein (entire human HLA-DR alpha 2 domain linked to an IgG1 Fc protein) (Fc fusion)” returned an apoptosis (Annexin V) of human CD4+ cells stimulated 72 h with anti-CD3/CD28, sHLA-DRα2 50 µg/ml of 51% and an apoptosis (Annexin V) of human CD8+ cells stimulated 72 h with anti-CD3/CD28, sHLA-DRα2 50 µg/ml of 54%. In experiment [2], this substance displayed a cells in G0/G1 cell cycle phase, human PBL activated with anti-CD3/CD28 48 h with sHLA-DRα2 50 µg/ml (propidium iodine, flow cytometry) of 89% and a subdiploid (apoptotic) cells 72 h after incubation of activated human PBL with sHLA-DRα2 of 46.4%.
